Results as given in patent US8889130B2, “Treatment of osteoarthritis and pain” (Abbvie Inc., priority 2011, dated 2014).

Legend:
Male SV129 mice = test: Destabilization of medial meniscus (DMM) model of osteoarthritis, cartilage degeneration (Chambers scores); assay type: in vivo, mouse; conditions: for mean sum Chambers scores and mean maximum Chambers scores (cartilage degeneration): Example 3.3.6 (FIG. 7)
From the text: (§1) Male SV129 mice weighing approximately 30 grams, housed 5/cage, were anesthetized on Day 0 with ketamine/xylazine cocktail, administered intraperitoneally (ip), and then the medial collateral ligament was exposed by blunt dissection, and transected to reflect the meniscus toward the femur. The joint space was closed with 8-0 vicryl suture. The skin was closed with wound glue. For sham surgeries, a vertical skin incision was made over the medial aspect of the knee and the joint capsule was opened. The capsule was closed with 8-0 vicryl suture and the skin was closed with wound glue. Groups of animals were then treated with intraperitoneal (ip) injections of antibody or vehicle according to the study design table below. Two sex-matched, age-matched, and strain-matched naïve mice were also included in the study. Animals were euthanized after 8 weeks of treatment, and knee joints were harvested in 10% neutral buffered formalin.
Formalin-fixed samples were decalcified, and specimens were sectioned in the frontal plane into 15 step sections each. Each section was approximately 6 μm thick, and step sections were separated by 70 μm. All slides were stained with toluidine blue (T. Blue). Slides were assessed according to the Chambers method (Chambers et al. (2001) Arthritis Rheum 44:1455-65) for cartilage degeneration (see below) by a board-certified veterinary pathologist. Each of the four cartilage surfaces, the medial femoral condyle (MFC), the medial tibial plateau (MTP), the lateral femoral condyle (LFC), and the lateral tibial plateau (LTP), was scored from 0-6 according to the scale in the table below.
as §1, with “8-0 vicryl suture, and the” for “8-0 vicryl suture and the”, “injections of anti-mIL-1α monoclonal antibody, anti-mIL-1β (alone or in combination), mIL-1α/βDVD-Ig binding protein, or vehicle” for “injections of antibody or vehicle”, “design table below (Table 24). Animals were” for “design table below. Two sex-matched, age-matched, and strain-matched naïve mice were also included in the study. Animals were”, “weeks of treatment and knee” for “weeks of treatment, and knee”
Male SV129 mice weighing approximately 30 grams had the medial collateral ligament exposed by blunt dissection, and transected to reflect the meniscus toward the femur. The joint space was closed with 8-0 vicryl suture. The skin was closed with wound glue. For sham surgeries, a vertical skin incision was made over the medial aspect of the knee and the joint capsule was opened. The capsule was closed with 8-0 vicryl suture, and the skin was closed with wound glue. Groups of animals were then treated per os (po) or via intraperitoneal (ip) injections of vehicle or treatments according to the study design table below. Three sex-matched, age-matched, and strain-matched naïve mice were also included in the study. Animals were euthanized after 4 weeks of treatment, and knee joints were harvested in 10% neutral buffered formalin.

male DBA-1 mice = test: Collagen-induced arthritis mouse model (rheumatoid arthritis); assay type: in vivo; conditions: therapeutic mode; 1-3 mg/kg intraperitoneally every other day after disease onset
Method: The therapeutic effects of anti-IL-1α, anti-IL-1β, combined anti-IL-1α/anti-IL-1β, and murine IL-1α/β DVD4-Ig, were evaluated in a collagen-induced arthritis mouse model well known in the art. Briefly, male DBA-1 mice were immunized with bovine type II collagen in CFA at the base of the tail. The mice were boosted with Zymosan intraperitoneally (i.p) at day 21. After disease onset at day 24-27, mice were selected and divided into separate groups of 10 mice each. […] To neutralize IL-1, mice were injected every other day with 1-3 mg/kg of anti-IL-1α mAb, anti-IL-1βmAb, combination of anti-IL-1α and anti-IL-1β mAbs, or murine IL-1α/β DVD4-Ig intraperitoneally. Mice were carefully examined three times a week for the visual appearance of arthritis in peripheral joints, and scores for disease activity determined.

[1] = test system: zymosan-induced IL-6 production; test: Zymosan-induced IL-6 production in joint instability model study; assay type: in vivo, mouse; conditions: day 21 of JIM; 50 mg/kg zymosan ip, serum 4 hours later; mAbs 6 mg/kg each; DVD-Ig 6 or 12 mg/kg
Method: As a pharmacodynamic readout to determine if anti-IL-1α and anti-IL-1β monoclonal antibodies as well as mIL-1α/β DVD-Ig binding protein were functional and capable of neutralizing IL-1α and IL-1β in vivo, zymosan-induced (IL-1α and IL-1β dependent) production of interleukin 6 (IL-6) was measured in a joint instability model study of OA.
Briefly, on day 21 in the model, zymosan was suspended in PBS vehicle and placed in boiling water for half an hour, then allowed to cool before using. The mice were then injected ip with 50 mg/kg zymosan in suspension (mixed well before injection) in 0.5 ml PBS. The mice were then bled 4 hours after zymosan injection. Serum was collected for IL-6 measurements.

male Swiss Webster mice = test: Joint instability model (JIM) of osteoarthritis, cartilage degeneration histology; assay type: in vivo, mouse
Method: The design of study of the in vivo activity of a mIL-1α/β DVD-Ig molecule in the joint instability model (JIM) of osteoarthritis in mice is shown in Table 19. All groups contained 25 mice (n=25), weighing approximately 30 grams (BW=30 g). The study was terminated after 21 days. Two and a half month old, male Swiss Webster mice (25/group/time point), housed 5/cage, were anesthetized with isoflurane anesthesia. Anterior cruciate ligament (ACL) trauma was administered on the right and left knees on day 0 in an attempt to induce OA lesions. Intraperitoneal (ip) treatments with IL-1 inhibitory antibodies IL-1α (9H10) and IL-1β (10G11), alone and in combination, were initiated the day of ACL trauma and continued every 4th day (q4d) for 20 days. The vehicle for the non-treatment control was PBS. Right and left knees were harvested on day 21, and histopathologic alterations were scored and characterized. Data were analyzed using only joints that had proliferative responses indicative of successful instability induction. The proliferative response/instability was scored 0-3, and only unstable joints (scores of 1, 2, or 3) were used in the final analysis. Medial and lateral femoral and tibial cartilage degeneration was scored for severity of cartilage degeneration on a scale 0-5. Four days after the last antibody dose, blood was drawn from all animals from each group for serum harvest. Body weights were recorded weekly. […]
Following 2-3 days in a decalcifying fixative (Surgipath Decalifier, Surgipath Medical Ind., Inc., Richmond Va.), both knee joints were trimmed of extraneous tissue, embedded in the frontal plane and sectioned. […] Slides were examined by a board-certified veterinary pathologist blinded to study group designation, and were scored according to the method below. […]
Medial and lateral femoral and tibial cartilage degeneration were scored for severity of cartilage degeneration using the following system: Depth/extent of chondrocyte and proteoglycan loss with fibrillation: […]
The design of this study was similar to that described above in Example 3.3.1. […] Body weights were recorded weekly. […]

B1: mIL-1α/βDVD-Ig: mouse anti-mouse DVD-Ig, V(anti-mIL-1β 10G11)-linker-V(anti-mIL-1α 9H10)-murine constant region (Cγ2a and Cκ) (antibody)
heavy: EVQLQQSGPELVKPGTSVKMSCKTSGYTFTSYVMHWVKQKPGQGLEWIGYIIPYNDNTKYNEKFKGKATLTSDKSSSTAYMELSSLTSEDSAVYYCARRNEYYGSSFFDYWGQGTTLTVSSAKTTAPSVYPLAPQVILKESGPGILQPSQTLSLTCSFSGFSLSTYGTAVNWIRQPSGKGLEWLAQIGSDDRKLYNPFLKSRITLSEDTSNSQVFLKITSVDTEDSATYYCANGVMEYWGLGTSVTVSSAKTTAPSVYPLAPVCGDTTGSSVTLGCLVKGYFPEPVTLTWNSGSLSSGVHTFPAVLQSDLYTLSSSVTVTSSTWPSQSITCNVAHPASSTKVDKKIEPRGPTIKPCPPCKCPAPNLLGGPSVFIFPPKIKDVLMISLSPIVTCVVVDVSEDDPDVQISWFVNNVEVHTAQTQTHREDYNSTLRVVSALPIQHQDWMSGKEFKCKVNNKDLPAPIERTISKPKGSVRAPQVYVLPPPEEEMTKKQVTLTCMVTDFMPEDIYVEWTNNGKTELNYKNTEPVLDSDGSYFMYSKLRVEKKNWVERNSYSCSVVHEGLHNHHTTKSFSRTPGK
light: DIQMTQSPASLSASVGETVTITCRGSGILHNYLVWYQQKQGKSPQLLVYSAKILADGVPSRFSGSGSGTQYSLKINSLQPEDFGSYYCQHFWSTPFTFGSGTKLEIKRADAAPTVSIFPPSIVMTQTPKFLLVSAGDRVTITCKASQSVNHDVAWYQQMPGQSPKLLIYFASNRYTGVPDRFTGSGYGTDFTFTISTVQAEDLAVYFCQQDYSSPYTFGGGTKLEIKRADAAPTVSIFPPSSEQLTSGGASVVCFLNNFYPKDINVKWKIDGSERQNGVLNSWTDQDSKDSTYSMSSTLTLTKDEYERHNSYTCEATHKTSTSPIVKSFNRNEC
cartilage degeneration (total sum score) (Male SV129 mice; Example 3.3.5 (FIG. 6), 8 weeks of treatment ip, 6 mg/kg): significantly reduced cartilage degeneration | mean sum Chambers scores and mean maximum Chambers scores (cartilage degeneration) (Male SV129 mice; 8 weeks, DVD-Ig at 1.5 mg/kg (excepted from the significant reduction)): except for IL-1α/β DVD at 1.5 mg/kg | mean sum Chambers scores and mean maximum Chambers scores (cartilage degeneration) (Male SV129 mice; 8 weeks, DVD-Ig at 3 and 6 mg/kg): significantly reduced | dose effect for mean sum Chambers scores (Male SV129 mice; Example 3.3.6, 8 weeks, DVD-Ig 1.5, 3, 6 mg/kg): statistically significant dose effect | reduction in mean arthritis score compared to control group (male DBA-1 mice): 47% | zymosan-induced IL-6 production [1]: significantly neutralized zymosan-induced IL-6 production | cartilage degeneration (male Swiss Webster mice; 3 mg/kg DVD-Ig binding protein): had not effect on cartilage degeneration | progression of osteoarthritis (cartilage degeneration scores, histopathological parameters) (male Swiss Webster mice; Example 3.3.2 (FIG. 3), DVD-Ig 6 or 12 mg/kg ip three times weekly, mAbs 6 mg/kg each Q4D, day 21): significantly inhibited the progression of osteoarthritis
